Here are results for six molecules from patent EP4650366A1 (Beijing Tuo Jie Biopharmaceutical Co. Ltd., dated 2025).

Experiment [1] concerns the target T1, Human GARP-TGFβ1 complex (human, UniProt Q14392 20-627; P01137 30-390).
T1 construct: Soluble recombinant complex, co-expressed in ExpiCHO cells and purified; also called human GARP/TGFβ1 protein
The experiment can be described thus: SPR (Biacore T200), method of Example 4.

In a further experiment the target is T2, Mouse GARP-TGFβ1 complex (mouse, UniProt G3XA59 18-628; P04202 30-390).
T2 construct: Soluble recombinant complex, co-expressed in ExpiCHO cells and purified; also called Murine GARP-TGFβ1 complex
Nature of the experiment: SPR (Biacore T200), method of Example 4.

For experiment [2], the target named is T1, Human GARP-TGFβ1 complex. Nature of the experiment: SPR (Biacore T200), method of Example 4. The source holds these as a separate data set.
The target of experiment [3] is T1, Human GARP-TGFβ1 complex. Nature of the experiment: SPR, method of Example 4; reference H27; antigen not given, taken as the human GARP-TGFβ1 complex as in Table 11.
Experiment [4] addresses T3, human GARP-TGFβ1 complex expressed by transfected cells (human, UniProt P01137 30-390; Q14392 20-662).
T3 construct: whole, on cells; also called TGFβ1-GARP complex; TGFβ1 + GARP
The experiment can be described thus: flow cytometry on transfected HEK293E cells, 10 nM antibody.

The target in experiment [5] is T4, human TGFβ1 expressed by transfected cells (human, UniProt P01137 30-390).
T4 construct: whole, on cells; also called human pro-TGFβ1
The experiment is described as above.

The target in experiment [6] is T5, mouse TGFβ1 expressed by transfected cells (mouse, UniProt P04202 30-390).
T5 construct: whole, on cells; also called mTGFβ1; murine TGFβ1
The experiment is described as above.

The target in experiment [7] is T6, mouse GARP-TGFβ1 complex expressed by transfected cells (mouse, UniProt P04202 30-390; G3XA59 18-663).
T6 construct: whole, on cells; also called mTGFβ1-mGARP complex; mTGFβ1 + mGARP
The experiment is described as above.

The target in experiment [8] is T7, human TGFβ2 expressed by transfected HEK293E cells (human, UniProt P61812 21-414).
T7 construct: whole, on cells
T7 sequence (looked up): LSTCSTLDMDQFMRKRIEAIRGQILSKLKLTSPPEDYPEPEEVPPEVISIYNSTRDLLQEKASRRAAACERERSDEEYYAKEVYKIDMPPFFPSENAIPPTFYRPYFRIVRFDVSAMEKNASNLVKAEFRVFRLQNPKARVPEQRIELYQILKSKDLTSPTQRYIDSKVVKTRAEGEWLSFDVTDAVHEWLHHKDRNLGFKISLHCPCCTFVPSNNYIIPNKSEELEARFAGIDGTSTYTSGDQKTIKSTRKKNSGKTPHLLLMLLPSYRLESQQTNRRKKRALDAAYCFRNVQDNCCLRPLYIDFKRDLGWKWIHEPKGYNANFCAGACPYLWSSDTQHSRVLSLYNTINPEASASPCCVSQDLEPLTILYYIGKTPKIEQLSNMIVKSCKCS
The experiment can be described thus: flow cytometry on transfected HEK293E cells, FITC anti-human Fc.

Experiment [9] deals with T8, human GARP-TGFβ2 complex expressed by transfected HEK293E cells (human, UniProt P61812 21-414; Q14392 20-662).
T8 construct: whole, on cells; also called TGFβ2-GARP complex; TGFβ2 + GARP
T8 sequence (looked up) 1: T7 sequence (looked up)
T8 sequence (looked up) 2: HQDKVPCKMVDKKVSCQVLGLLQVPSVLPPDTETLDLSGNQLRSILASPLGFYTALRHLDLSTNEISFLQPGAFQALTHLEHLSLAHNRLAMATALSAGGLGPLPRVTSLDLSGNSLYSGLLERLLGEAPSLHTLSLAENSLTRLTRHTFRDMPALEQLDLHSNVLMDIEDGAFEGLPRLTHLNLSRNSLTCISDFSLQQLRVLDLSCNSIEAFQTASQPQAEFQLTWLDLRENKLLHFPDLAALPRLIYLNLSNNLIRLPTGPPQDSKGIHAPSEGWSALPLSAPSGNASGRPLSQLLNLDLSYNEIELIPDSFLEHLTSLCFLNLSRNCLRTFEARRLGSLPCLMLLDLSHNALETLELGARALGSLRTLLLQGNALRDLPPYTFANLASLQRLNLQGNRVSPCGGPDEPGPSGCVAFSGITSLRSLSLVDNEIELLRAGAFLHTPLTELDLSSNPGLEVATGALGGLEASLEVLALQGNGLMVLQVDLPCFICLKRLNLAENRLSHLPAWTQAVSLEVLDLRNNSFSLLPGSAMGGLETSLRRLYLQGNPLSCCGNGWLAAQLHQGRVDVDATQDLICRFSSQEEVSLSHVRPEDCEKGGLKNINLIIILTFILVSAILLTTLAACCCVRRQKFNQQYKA
Described as above.

Residue numbers refer to the chain shown, from its start. Names and notes keep the numbering of the source. Read-outs that look alike come from different tables or passages of the source.

T2 sequence (G3XA59 other isoform, or with tags, fused parts or gaps limits assumed, chain 1 of 2): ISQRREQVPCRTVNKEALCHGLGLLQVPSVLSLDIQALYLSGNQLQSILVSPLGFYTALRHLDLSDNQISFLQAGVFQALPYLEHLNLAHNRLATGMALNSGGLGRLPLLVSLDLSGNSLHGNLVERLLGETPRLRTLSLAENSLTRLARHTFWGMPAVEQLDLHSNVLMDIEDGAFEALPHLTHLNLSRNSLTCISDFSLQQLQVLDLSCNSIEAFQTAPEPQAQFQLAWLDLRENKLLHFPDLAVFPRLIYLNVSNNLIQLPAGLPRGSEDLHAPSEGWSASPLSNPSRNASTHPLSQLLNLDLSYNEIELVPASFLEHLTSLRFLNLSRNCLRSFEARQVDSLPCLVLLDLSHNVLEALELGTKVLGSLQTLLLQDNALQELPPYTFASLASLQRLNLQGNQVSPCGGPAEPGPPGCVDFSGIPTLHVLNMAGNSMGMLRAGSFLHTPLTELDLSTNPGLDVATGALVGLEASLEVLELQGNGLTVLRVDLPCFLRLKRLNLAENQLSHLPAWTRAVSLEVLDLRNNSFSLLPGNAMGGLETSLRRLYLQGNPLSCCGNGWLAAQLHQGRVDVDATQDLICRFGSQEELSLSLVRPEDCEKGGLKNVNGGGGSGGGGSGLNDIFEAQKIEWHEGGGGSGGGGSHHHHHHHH
T2 sequence (P04202 30-390 limits assumed, chain 2 of 2): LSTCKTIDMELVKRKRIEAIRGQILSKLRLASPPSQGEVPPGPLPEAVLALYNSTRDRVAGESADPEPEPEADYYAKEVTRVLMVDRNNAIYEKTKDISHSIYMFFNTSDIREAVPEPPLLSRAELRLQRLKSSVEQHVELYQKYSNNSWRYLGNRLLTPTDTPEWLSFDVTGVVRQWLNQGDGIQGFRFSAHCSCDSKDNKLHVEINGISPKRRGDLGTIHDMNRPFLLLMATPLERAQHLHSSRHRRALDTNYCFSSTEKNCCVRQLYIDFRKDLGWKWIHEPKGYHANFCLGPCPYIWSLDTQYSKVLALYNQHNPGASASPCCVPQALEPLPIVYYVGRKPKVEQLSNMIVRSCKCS
T1 sequence (P01137 30-390 limits assumed, one chain of several): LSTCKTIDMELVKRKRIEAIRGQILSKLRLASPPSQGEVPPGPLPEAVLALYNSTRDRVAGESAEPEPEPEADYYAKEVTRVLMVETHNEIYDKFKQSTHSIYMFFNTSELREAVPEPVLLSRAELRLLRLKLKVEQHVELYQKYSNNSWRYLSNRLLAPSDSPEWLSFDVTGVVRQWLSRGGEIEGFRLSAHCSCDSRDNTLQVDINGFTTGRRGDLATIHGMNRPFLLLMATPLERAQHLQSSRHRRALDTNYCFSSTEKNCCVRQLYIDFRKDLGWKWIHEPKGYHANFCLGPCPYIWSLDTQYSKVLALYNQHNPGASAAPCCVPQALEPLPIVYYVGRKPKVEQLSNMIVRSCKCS
T6 sequence (P04202 30-390, chain 1 of 2): as the sequence (P04202 30-390 limits assumed, chain 2 of 2) above
T6 sequence (G3XA59 18-663, chain 2 of 2): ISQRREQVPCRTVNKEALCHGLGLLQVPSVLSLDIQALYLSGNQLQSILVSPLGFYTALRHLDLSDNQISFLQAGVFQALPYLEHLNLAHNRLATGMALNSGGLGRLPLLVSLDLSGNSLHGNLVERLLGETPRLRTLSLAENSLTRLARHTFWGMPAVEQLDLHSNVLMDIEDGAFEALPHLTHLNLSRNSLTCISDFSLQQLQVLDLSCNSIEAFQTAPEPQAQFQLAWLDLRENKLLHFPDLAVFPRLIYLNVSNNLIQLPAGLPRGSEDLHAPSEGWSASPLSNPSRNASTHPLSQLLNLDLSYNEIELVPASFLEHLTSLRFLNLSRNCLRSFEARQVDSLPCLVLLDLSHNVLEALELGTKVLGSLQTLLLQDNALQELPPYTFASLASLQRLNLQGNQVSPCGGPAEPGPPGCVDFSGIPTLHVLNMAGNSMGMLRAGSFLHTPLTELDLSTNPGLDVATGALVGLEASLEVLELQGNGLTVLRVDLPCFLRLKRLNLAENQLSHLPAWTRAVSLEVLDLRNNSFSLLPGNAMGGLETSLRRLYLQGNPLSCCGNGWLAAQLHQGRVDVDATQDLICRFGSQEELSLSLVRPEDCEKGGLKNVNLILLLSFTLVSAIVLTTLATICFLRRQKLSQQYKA
T5 sequence (P04202 30-390): as the sequence (P04202 30-390 limits assumed, chain 2 of 2) above
T3 sequence (P01137 30-390, one chain of several): as the sequence (P01137 30-390 limits assumed, one chain of several) above
T4 sequence (P01137 30-390): as the sequence (P01137 30-390 limits assumed, one chain of several) above

B1: Ab6 (antibody, V domains shown)
VH: QVQLVESGGGVVQPGRSLRLSCAASGFAFSSYGMHWVRQAPGKGLEWVAVISYDGNNKYYADSVKGRFTISRDNSKNTLYLQMNSLRAEDTAVYYCARDLLVRFLEWSHKYGMDVWGQGTTVTVSS
VL: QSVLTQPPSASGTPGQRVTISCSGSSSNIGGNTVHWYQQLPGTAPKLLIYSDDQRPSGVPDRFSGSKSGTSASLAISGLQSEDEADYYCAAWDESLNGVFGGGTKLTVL
Take B1: in the experiment with Human GARP-TGFβ1 complex [1], the Kd came out at 0.332 nM, the koff was found to be 0.000138 s⁻¹ and the kon turned out to be 417000 M⁻¹ s⁻¹. Also, in the experiment with Mouse GARP-TGFβ1 complex, binding was put at a Kd of 0.226 nM, the koff stood at 0.000106 s⁻¹ and the kon stood at 469000 M⁻¹ s⁻¹.

B2: SL2-2 (antibody, human IgG4 S228P, kappa, V domains shown)
VH: not shown
VL: DIQMTQSPSSLSASVGDRVTITCRASQFISDYLNWYQQKPGKAPKLLIYTASYLDSGVPSRFSGSGSGTDFTLTISSLQPEDFATYYCQQSYSTPLTFGGGTKLEIKR
notes: Human IgG4-S228P/kappa, H27 heavy chain
In the experiment with Human GARP-TGFβ1 complex [2], B2 returned a Kd of 0.135 nM, a koff of 5.24e-05 s⁻¹ and a kon of 387000 M⁻¹ s⁻¹. In the experiment with Human GARP-TGFβ1 complex [3], the “fold affinity over H27” value was found to be 5 fold.

B3: SL2-19 (antibody, human IgG4 S228P, kappa, V domains shown)
VH: not shown
VL: B2 VL with F28A, D31P, T50A, Y53E, D55E
notes: as for B2
In the experiment with Human GARP-TGFβ1 complex [2], B3 gave a Kd of 0.362 nM, a koff of 6.95e-05 s⁻¹ and a kon of 192000 M⁻¹ s⁻¹. In the experiment with Human GARP-TGFβ1 complex [3], the “fold affinity over H27” value turned out to be 5 fold.

B4: SL2-9 (antibody, human IgG4 S228P, kappa, V domains shown)
VH: not shown
VL: B2 VL with D31P, T50A, Y53E, D55E
notes: as for B2
For B4, in the experiment with Human GARP-TGFβ1 complex [2], the Kd was found to be 0.475 nM, the koff came to 8.54e-05 s⁻¹ and the kon was found to be 180000 M⁻¹ s⁻¹. Besides, in the experiment with Human GARP-TGFβ1 complex [3], the “fold affinity over H27” value was 5 fold.

B5: SL2-12 (antibody, human IgG4 S228P, kappa, V domains shown)
VH: not shown
VL: B2 VL with F28Y, T50S
notes: as for B2
On to B5, for which, in the experiment with Human GARP-TGFβ1 complex [2], the affinity, expressed as Kd, was 0.266 nM; the koff amounted to 8.51e-05 s⁻¹; the kon amounted to 320000 M⁻¹ s⁻¹. Further, the “fold affinity over H27” value in the experiment with Human GARP-TGFβ1 complex [3] amounted to 5 fold.

B6: SL2-22 (antibody, human IgG4 S228P, kappa, V domains shown)
VH: not shown
VL: B2 VL with F28S
notes: Human IgG4-S228P/kappa, H27 heavy chain; also called TGFβ1 monoclonal antibody SL2-22; anti-human TGFβ1 antibody SL2-22
B6: the dissociation constant (Kd) was 0.161 nM in the experiment with Human GARP-TGFβ1 complex [2], 0.254 nM in the experiment with Human GARP-TGFβ1 complex [1] and 0.228 nM in the experiment with Mouse GARP-TGFβ1 complex. Also, the results for the koff with Human GARP-TGFβ1 complex [2], in the experiment with Human GARP-TGFβ1 complex [1] and with Mouse GARP-TGFβ1 complex were 6.08e-05 s⁻¹, 9.5e-05 s⁻¹ and 8.86e-05 s⁻¹, respectively. The kon with Human GARP-TGFβ1 complex [2] amounted to 379000 M⁻¹ s⁻¹; with Human GARP-TGFβ1 complex [1], 375000 M⁻¹ s⁻¹; with Mouse GARP-TGFβ1 complex, 389000 M⁻¹ s⁻¹. The binding result is given as “binds” in experiment [4]; “binds” in experiment [5]; “binds” in [6]; “binds” in experiment [7]; “no binding (tested: 10 nM)” in experiment [8]; “no binding (tested: 10 nM)” in experiment [9]. For the same molecule, the “fold affinity over H27” value with Human GARP-TGFβ1 complex [3] turned out to be 5 fold.
